Assay: soluble on expression in E. coli; label from the status in PepcDB or PDB records

| Sequence | soluble on expression in E. coli |
| --- | --- |
| AAAAAAMIVQRVVLNSRPGKNGNPVAENFRMEEVYLPDNINEGQVQVRTLYLSVDPYMRCRMNEDTGTDYITPWQLSQVVDGGGIGIIEESKHTNLTKGDFVTSFYWPWQTKVILDGNSLEKVDPQLVDGHLSYFLGAIGMPGLTSLIGIQEKGHITAGSNKTMVVSGAAGACGSVAGQIGHFLGCSRVVGICGTHEKCILLTSELGFDAAINYKKDNVAEQLRESCPAGVDVYFDNVGGNISDTVISQMNENSHIILCGQISQYNKDVPYPPPLSPAIEAIQKERNITRERFLVLNYKDKFEPGILQLSQWFKEGKLKIKETVINGLENMGAAFQSMMTGGNIGKQIVCISEEISL | soluble |
| AALGPSSQNVTEYVVRVPKNTTKKYNIMAFNAADKVNFATWNQARLERDLSNKKIYQEEEMPESGAGSEFNRKLREEARRKKYGIVLKEFRPEDQPWLLRVNGKSGRKFKGIKKGGVTENTSYYIFTQCPDGAFEAFPVHNWYNFTPLARHRTLTAEEAEEEWERRNKVLN | soluble |
| AAPGKPTIAWGNTKFAIVEVDQAATAYNNLVKVKNAADVSVSWNLWNGDTGTTAKILLNGKEAWSGPSTGSSGTANFKVNKGGRYQMQVALCNADGCTASDATEIVVADTDGSHLAPLKEPLLEKNKPYKQNSGKVVGSYFVEWGVYGRNFTVDKIPAQNLTHLLYGFIPICGGNGINDSLKEIEGSFQALQRSCQGREDFKVSIHDPFAALQKAQKGVTAWDDPYKGNFGQLMALKQAHPDLKILPSIGGWTLSDPFFFMGDKVKRDRFVGSVKEFLQTWKFFDGVDIDWEFPGGKGANPNLGSPQDGETYVLLMKELRAMLDQLSAETGRKYELTSAISAGKDKIDKVAYNVAQNSMDHIFLMSYDFYGAFDLKNLGHQTALNAPAWKPDTAYTTVNGVNALLTQGVKPGKIVVGTAMYGRGWTGVNGYQNNIPFTGTATGPVKGTWENGIVDYRQIASQFMSGEWQYTYDATAEAPYVFKPSTGDLITFDDARSVQAKGKYVLDKQLGGLFSWEIDADNGDILNSMNASLGNSAGVQLEHHHHHH | soluble |
| AASPPTEEAVVATEPLTREDLIAYLASGCKSKEKWRIGTEHEKFGFEVNTLRPMKYDQIAELLNSIAERFEWEKVMEGDKIIGLKQGKQSISLEPGGQFELSGAPLETLHQTCAEVNSHLYQVKAVAEEMGIGFLGMGFQPKWRREDIPTMPKGRYDIMRNYMPKVGSLGLDMMLRTCTVQVNLDFSSEADMIRKFRAGLALQPIATALFANSPFTEGKPNGFLSMRSHIWTDTDKDRTGMLPFVFDDSFGFEQYVDYALDVPMYFAYRNGKYVDCTGMTFRQFLAGKLPCLPGELPTYNDWENHLTTIFPEVRLKRYMEMRGADGGPWRRLCALPAFWVGLLYDEDVLQSVLDLTADWTPAEREMLRNKVPVTGLKTPFRDGLLKHVAEDVLKLAKDGLERRGYKEVGFLNAVTEVVRTGVTPAENLLEMYNGEWGQSVDPVFQELLY | soluble |
| ADETLAEFHVEMGGCENCHADGEPSKDGAYEFEQCQSCHGSLAEMDDNHKPHDGLLMCADCHAPHEAKVGEKPTCDTCHDDGRTAK | soluble |
| AEAQNDPLLPGYSFNAHLVAGLTPIEANGYLDFFIDRPLGMKGYILNLTIRGQGVVKNQGREFVCRPGDILLFPPGEIHHYGRHPEAREWYHQWVYFRPRAYWHEWLNWPSIFANTGFFRPDEAHQPHFSDLFGQIINAGQGEGRYSELLAINLLEQLLLRRMEAINESLHPPMDNR | soluble |
| AEMKNLKIEVVRYNPEVDTAPHSAFYEVPYDATTSLLDALGYIKDNLAPDLSYRWSCRMAICGSCGMMVNNVPKLACKTFLRDYTDGMKVEALANFPIERDLVVDMTHFIESLEAIKPYIIGNSRTADQGTNIQTPAQMAKYHQFSGCINCGLCYAACPQFGLNPEFIGPAAITLAHRYNEDSRDHGKKERMAQLNSQNGVWSCTFVGYCSEVCPKHVDPAAAIQQGKVESSKDFLIATLKPR | soluble |
| AFMQDRLKIMRQQNPAASLQHQWVDYEQISSHLKRAVIAAEDARFLQHQGFDYKAIETAWKKNLKQRKWAAGGSTISQQLAKNLFLSTEKTVWRKSRETLITLMLEEFLTKRRILEIYLNIIEWGDGIFGIEAAARHYFGISAASLTPAQAAWLASIIPNPRFYDTRRTLPKLLNKSRIILSRLPAAKIP | not soluble |
| AGCEGLRIGQSALQARLSDQIDKLTQAEQHANQMLIDVRSRNHDTMKHITAIKSAQPKADTQAYIQNWADQYSQYDRFLKGENAYVAGVLYDFLEKARASNVSVSLHMHTPLSSLPFSPADQVSLVGNILENALDSAAEAREKAEIKLETSLRSGLYVLTCENSTPGMDPKVLDTIYQSFGRSTKNGAHEGMGTYIIQKLVKGAFGRLDFTYRHPIFRLEIKIPFQ | not soluble |
| AGGEDRGDGEPVSVVTVRVQYLEDTDPFACANFPEPRRAPTCSLDGALPLGAQIPAVHRLLGAPLKLEDCALQVSPSGYYLDTELSLEEQREMLEGFYEEISKGRKPTLILRTQLSVRVNAILEKLYSSSGPELRRSLFSLKQIFQEDKDLVPEFVHSEGLSCLIRVGAAADHNYQSYILRALGQLMLFVDGMLGVVAHSDTIQWLYTLCASLSR | not soluble |
| AGMSEAPRAETFVFLDLEATGLPSVEPEIAELSLFAVHRSSLENPEHDESGALVLPRVLDKLTLCMCPERPFTAKASEITGLSSEGLARCRKAGFDGAVVRTLQAFLSRQAGPICLVAHNGFDYDFPLLCAELRRLGARLPRDTVCLDTLPALRGLDRAHSHGTRARGRQGYSLGSLFHRYFRAEPSAAHSAEGDVHTLLLIFLHRAAELLAWADEQARGWAHIEPMYLPPDDPSLEA | soluble |
| AGTGVVSVQFNNGSSPASSNSIYARFKVTNTSGSPINLADLKLRYYYTQDADKPLTFWCDHAGYMSGSNYIDATSKVTGSFKAVSPAVTNADHYLEVALNSDAGSLPAGGSIEIQTRFARNDWSNFDQSNDWSYTAAGSYMDWQKISAFVGGTLAYGSTP | soluble |
| AHHHHHHGSALSDKLDLVNPSEIRKLFDLAAGMKDVISLGIGEPDFDTPAHIKEYAKEGLDKGLTHYGPNVGLPELREAIAEKLKKQNGIEADPNSEIMVLVGANQAFLMSLATFLKDGEEVLIPSPMFVSYAPAVILAGGKPVEVPTYEDNEFRINVDDLKKHVSEKTRALIINSPNNPTGAVLTKKDLEEIADFANEHDLMIISDEVYEHFIYDGAKHYSIAALDGMFGRTITVNGFSKTFAMTGWRLGFVVAPSWVIEKMVKFQMYNATCPVTFIQYAAAKALRDERSWKAVEEMRKEYERRRNLVWKRLNEMGLPTVEPKGAFYIFPRIKDTGLSSKEFSELMLMEAKVAVVPGSAFGRAGEGYIRISYATAYEKLEEAMNRMEKVLKEKKLI | soluble |
| AHHHHHHGSEFNIIIAGVGGQGGLTLSRIIGSAAMVEGYRVRIGETLGMSQRYGSVLSYLRFGDSVYSPLIEEGKANLMLALEPVEALRNAAFLGKGSYAIVNAYPIHTATTLVGKEKYPSLEEIKEALEKICRVEMMNFQKEADLINPRTTGVLMLGYAQGKGLLPLKKESIIEGIRLTLREKLWEINFKAFERGRELAKHVCCDV | soluble |
| AHHHHHHGSEIKYRPEELTKLPRSVEYREGKVYMINQRLLPREFKVEEFTTVEAVAEAIKNMTVRGAPAIGAAAAFGLALYAETSKAKTKDEFFDGFYRAYETLKNTRPTAVNLFWALNRIKKLVEEHREDSLDEIKRLIVEEAQKIADEDVEANLRMGHYGAEVLPEGNILTHCNAGSLATVHLGTVGAVVRVMHKEGTLKLLWLDETRPVLQGARLSAWEYSYDGLNVKLIADNAAAFVMQQGKVDAIIVGADRIVANGDFANKIGTYMLAVLAKEHGIPFFTVAPLSSIDMSLSSGKEIPIEERSPEEVLTCGGCRIAPDVPVYNPAFDVTPHKYLTGIITDRGVVWPPFKRNLKKLFETL | soluble |
| AHHHHHHGSKLKFWREVAIDIISDFETTIMPFFGNPDGGKLVKISPSGDETKLVDKLAEDLILSRITELGVNVVSEEVGVIDNESEYTVIVDPLDGSYNFIAGIPFFALSLAVFKKDKPIYAIIYEPMTERFFEGIPGEGAFLNGKRIKVRKTPDEKPSISFYSRGKGHEIVKHVKRTRTLGAIALELAYLAMGALDGVVDVRKYVRPTDIAAGTIIAKEAGALIKDSAGKDIDISFNATDRLDVIAVNSEELLKTILSLLE | soluble |
| AHHHHHHGSKRRAVVLFSGGLDSTACLYWAKKQYDEVIMLTVNYGSNEERVTNKVAEYFSKELDVRLKIVKLDFLKEFSEIRGSSLVGGEVPRVTAEELEDIEKASETARSVWIPARNLVLISVAASLLDALGGGDIIVGFNAEEATTFPDNSREFVEKLNEALRFATLNPVKVVAPLIDLDKRGIAKLLKELNAKYEYSNSCYNPKGFTEDGRPIHCGECESCVRRHKGLIEGIGEDKTVYAITPRI | not soluble |
| AHHHHHHGSKVIASAPAKVILFGEHSVVYGKPAIAAAIDLRTFVEAELIREKKIRIEAHDIKVPGLTVSFSENEIYFETDYGKAAEVLSYVREAINLVLEEADKKNVGIKVSITSQIPVGAGLGSSAAVAVATIGAVSKLLGLELSKEEIAKMGHKTELLVQGASSGIDPTVSAIGGFIFYEKGKFEHLPFMELPIVVGYTGSSGPTKELVAMVRKRYEEMPELIVPILEAMGKVVEKAKDVILSNVDKEEKFERLGVLMNINHGLLDALGVSTKKLSELVYAARVAGALGAKITGAGGGGCMYALAPNKQREVATAIRIAGGTPMITEISREGLKIEEVIK | not soluble |
| AHHHHHHGSPKKERKVEGEEVIRVPLPEGNQLFGVVEQALGAGWMDVRCEDGKVRRCRIPGRLRRRVWIKVGDLVIVEPWPVQSDKRGDIVYRYTQTQVEWLLRKGKISQEFLTGGSLLLE | not soluble |
| AHHHHHHGSVLKCVVCGREYPEDEVRYRCECGGLLEVVIDLDKVDTSIFNGKEIKLWKYESWLPVKKRVSLEEGGTPLYRLLNLESDLGVKELYAKNEGANPTGSFKDRGMTVGVSKALELGMDKVICASTGNTSASLAAYAAKAGIKAYVLIPSGKIALGKLAQAIIYGARVVPIKGNFDDALRVVVETSKELGIYMLNSINPFRLEGQKTIAYEIYDQLGKVPDNVILPVGNAGNISAIWKGFKEMYEAGVIDELPRMIGIQAEGASPLAKAWKEKRKFQPEESPETIASAIRIGNPANWIKAWRAVEESGGLFESVSDEEILRAQKLLASREGLFVEPASAASLAGLIKLLESGEISRNESYVLITTGHGLKDPNIVIKNFQVPEPIDPTLEAFKEVIE | soluble |
| AIAAMGRTTQFTLDEVAKHADKDSCWLVIDGKVYAVEKFLNEHPGGEDVLLETAGRDATREFEDVGHSKSAREQLKEFYIGDVREPTAEELAAKRAVQASAAAERRDGDGVRANGLGKERLFAGGAFGAEPLSGGSSTWTLLKRLFVPVCIAVLVYLVREYSKQVQTGG | soluble |
| AIADKKAMWDRFYTENGSKGQFKNFEWFFGFPSVKDLVLPALQAMSCSHSGPLHILDMGCGTSALGPCIYSTSPCAVRVTCADISPVAVKLMEEHTKSTSTQPCNPSSALVFLELDCTQMTGHFKSRSLDLILDKGTTDALVRSKEGQVKAGQILRQSLQVLRPSGSFLQFSDEDPDARLIWLEREVQGAEVTADVGVQEIGELRGVSYFCYQISPRSRPHS | soluble |
| AIAEGEYRLTRSYAVVDITAQVDDSAILEPFACVMARARIGPRTRVGAHSVVGVGVSVGADCCIYHHVTLLNCDIGDRCVIHSGVAIGQDGFGFEVDQQTGKVRKKPQELSVRIGNEVEIGANTCIDRGSWRDTLIEDAVKIDNLVQIGHNVQVGANTFICGQAGVAGSTKIGRYCRFGGRSGAVDHLEIGDHVDVAANSVLTRNAPGHAVYAGFPAMPMREWRHQQVTLRRLSRAGKRQVDVSADDPEFPK | soluble |

— the DeepSol protein solubility set
